What follows are substances tested against HLA-A*02:01 (Homo sapiens, UniProt P04439, D140Y/D185E/D98H/E176V/E277Q/G131W/G231S/I119V/I121R/I166T/I218V/L300P/L318F/N151K/N90K/P208A/P217A/Q86G/Q94H/R138H/R169H/T345S) (assay: MHC binding assay (UV-ligand exchange, β2m ELISA)). Conditions: MHC class I binding score; binding to HLA-A*02:01 ranged by peptide exchange yield (UV-ligand exchange, β2m ELISA).
Description: Candidate peptides for T cell based therapies according to the present invention were further tested for their MHC binding capacity (affinity). The individual peptide-MHC complexes were produced by UV-ligand exchange, where a UV-sensitive peptide is cleaved upon UV-irradiation, and exchanged with the peptide of interest as analyzed. Only peptide candidates that can effectively bind and stabilize the peptide-receptive MHC molecules prevent dissociation of the MHC complexes. To determine the yield of the exchange reaction, an ELISA was performed based on the detection of the light chain (β2m) of stabilized MHC complexes. The assay was performed as generally described in Rodenko et al. (Rodenko et al., 2006).
96 well MAXISorp plates (NUNC) were coated over night with 2 ug/ml streptavidin in PBS at room temperature, washed 4× and blocked for 1 h at 37° C. in 2% BSA containing blocking buffer. Refolded HLA-A*02:01/MLA-001 monomers served as standards, covering the range of 15-500 ng/ml. Peptide-MHC monomers of the UV-exchange reaction were diluted 100 fold in blocking buffer. Samples were incubated for 1 h at 37° C., washed four times, incubated with 2 ug/ml HRP conjugated anti-β2m for 1 h at 37° C., washed again and detected with TMB solution that is stopped with […]. Absorption was measured at 450 nm. Candidate peptides that show a high exchange yield (preferably higher than 50%, most preferred higher than 75%) are generally preferred for a generation and production of antibodies or fragments thereof, and/or T cell receptors or fragments thereof, as they show sufficient avidity to the MHC molecules and prevent dissociation of the MHC complexes.

Row | Substance | Peptide exchange
1 | 1 (FLDVKELML; listed as Homo sapiens) [compound 1] | ++++ (>75% = ++++)
2 | 169 (TLLESIQHV; listed as Homo sapiens) [compound 169] | ++++ (>75% = ++++)
3 | 47 (ALDSDPVGL; listed as Homo sapiens) [compound 47] | +++ (>50 = +++)
4 | 149 (YLDTFALKL; listed as Homo sapiens) [compound 149] | ++++ (>75% = ++++)
5 | 88 (ILDGIIREL; listed as Homo sapiens) [compound 88] | +++ (>50 = +++)
6 | 112 (VLPAVLTRL; listed as Homo sapiens) [compound 112] | +++ (>50 = +++)
7 | 92 (KLPGFPTQDDEV; listed as Homo sapiens) [compound 92] | ++ (>20% = ++)
8 | 120 (QLMEGKVVL; listed as Homo sapiens) [compound 120] | ++++ (>75% = ++++)
9 | 35 (ALFAAGANV; listed as Homo sapiens) [compound 35] | +++ (>50 = +++)
10 | 105 (SLKQTVVTL; listed as Homo sapiens) [compound 105] | +++ (>50 = +++)
11 | 177 (ILWDTLLRL; listed as Homo sapiens) [compound 177] | ++++ (>75% = ++++)
12 | 164 (ALFFQLVDV; listed as Homo sapiens) [compound 164] | ++ (>20% = ++)
13 | 167 (KVLGDVIEV; listed as Homo sapiens) [compound 167] | ++++ (>75% = ++++)
14 | 107 (TLVAFLQQV; listed as Homo sapiens) [compound 107] | ++++ (>75% = ++++)
15 | 165 (ALIEVLQPLI; listed as Homo sapiens) [compound 165] | ++++ (>75% = ++++)
16 | 218 (STLHLVLRL; listed as Homo sapiens) [compound 218] | +++ (>50 = +++)
17 | 151 (FLGEPASYLYL; listed as Homo sapiens) [compound 151] | ++++ (>75% = ++++)
18 | 23 (FLGDPPPGL; listed as Homo sapiens) [compound 23] | +++ (>50 = +++)
19 | 181 (GLIDLEANYL; listed as Homo sapiens) [compound 181] | ++++ (>75% = ++++)
20 | 234 (KVPEIEVTV; listed as Homo sapiens) [compound 234] | ++++ (>75% = ++++)
21 | 6 (SIPDTIASV; listed as Homo sapiens) [compound 6] | +++ (>50 = +++)
22 | 235 (ALADLQEAV; listed as Homo sapiens) [compound 235] | ++++ (>75% = ++++)
23 | 203 (FLNEDISKL; listed as Homo sapiens) [compound 203] | +++ (>50 = +++)
24 | 144 (SVDEVEISV; listed as Homo sapiens) [compound 144] | +++ (>50 = +++)

Row | Substance | Peptide exchange
25 | 43 (LLPDPLYSL; listed as Homo sapiens) [compound 43] | ++ (>20% = ++)
26 | 163 (RLMANPEALKI; listed as Homo sapiens) [compound 163] | +++ (>50 = +++)
27 | 54 (LLDSGAFHL; listed as Homo sapiens) [compound 54] | +++ (>50 = +++)
28 | 90 (ILDYIHNGL; listed as Homo sapiens) [compound 90] | +++ (>50 = +++)
29 | 7 (NLQEKVPEL; listed as Homo sapiens) [compound 7] | +++ (>50 = +++)
30 | 143 (ILDDSALYL; listed as Homo sapiens) [compound 143] | ++++ (>75% = ++++)
31 | 208 (YSDDIPHAL; listed as Homo sapiens) [compound 208] | ++ (>20% = ++)
32 | 80 (FADELSHLL; listed as Homo sapiens) [compound 80] | +++ (>50 = +++)
33 | 36 (SVNGFISTL; listed as Homo sapiens) [compound 36] | ++ (>20% = ++)
34 | 124 (FLPQKIIYL; listed as Homo sapiens) [compound 124] | ++++ (>75% = ++++)
35 | 108 (TVIRPLPGL; listed as Homo sapiens) [compound 108] | ++ (>20% = ++)
36 | 81 (FLDDGNQML; listed as Homo sapiens) [compound 81] | +++ (>50 = +++)
37 | 142 (FVDGSAIQV; listed as Homo sapiens) [compound 142] | +++ (>50 = +++)
38 | 236 (GLDSGFHSV; listed as Homo sapiens) [compound 236] | ++++ (>75% = ++++)
39 | 130 (GLVDVLYTA; listed as Homo sapiens) [compound 130] | +++ (>50 = +++)
40 | 123 (LLGEGIPSA; listed as Homo sapiens) [compound 123] | ++++ (>75% = ++++)
41 | 210 (LLPELRDWGV; listed as Homo sapiens) [compound 210] | +++ (>50 = +++)
42 | 186 (FLDHEMVFL; listed as Homo sapiens) [compound 186] | ++++ (>75% = ++++)
43 | 86 (HTLPHEIVVNL; listed as Homo sapiens) [compound 86] | +++ (>50 = +++)
44 | 48 (HLIGWTAFL; listed as Homo sapiens) [compound 48] | ++++ (>75% = ++++)
45 | 70 (LIDEAAQML; listed as Homo sapiens) [compound 70] | +++ (>50 = +++)
46 | 110 (VLDTLTKVL; listed as Homo sapiens) [compound 110] | +++ (>50 = +++)
47 | 100 (NLREILQNV; listed as Homo sapiens) [compound 100] | +++ (>50 = +++)
48 | 69 (IIDDKPIGL; listed as Homo sapiens) [compound 69] | +++ (>50 = +++)

Row | Substance | Peptide exchange
49 | 127 (TLISDIEAVKA; listed as Homo sapiens) [compound 127] | +++ (>50 = +++)
50 | 114 (VVDDIVSKL; listed as Homo sapiens) [compound 114] | ++ (>20% = ++)
51 | 119 (SLGLGFISRV; listed as Homo sapiens) [compound 119] | +++ (>50 = +++)
52 | 50 (HLDQIFQNL; listed as Homo sapiens) [compound 50] | ++ (>20% = ++)
53 | 28 (IVDNTTMQL; listed as Homo sapiens) [compound 28] | +++ (>50 = +++)
54 | 221 (SLLPTEQPRL; listed as Homo sapiens) [compound 221] | +++ (>50 = +++)
55 | 187 (SLPRPTPQA; listed as Homo sapiens) [compound 187] | +++ (>50 = +++)
56 | 53 (ILDEEKFNV; listed as Homo sapiens) [compound 53] | +++ (>50 = +++)
57 | 67 (YVDSEGIVRM; listed as Homo sapiens) [compound 67] | + (>10% = +)
58 | 87 (IIDPPLHGQLL; listed as Homo sapiens) [compound 87] | ++ (>20% = ++)
59 | 40 (LLSNTVSTL; listed as Homo sapiens) [compound 40] | +++ (>50 = +++)
60 | 205 (SLKSKVLSV; listed as Homo sapiens) [compound 205] | ++++ (>75% = ++++)
61 | 63 (SIDDSDPIV; listed as Homo sapiens) [compound 63] | + (>10% = +)
62 | 27 (TLWYVPLSL; listed as Homo sapiens) [compound 27] | ++++ (>75% = ++++)
63 | 52 (NLDYAILKL; listed as Homo sapiens) [compound 52] | + (>10% = +)
64 | 141 (YVIDPIKGL; listed as Homo sapiens) [compound 141] | +++ (>50 = +++)
65 | 106 (TLSEICEFI; listed as Homo sapiens) [compound 106] | ++++ (>75% = ++++)
66 | 212 (LLKDSIVQL; listed as Homo sapiens) [compound 212] | +++ (>50 = +++)
67 | 159 (TILATVPLV; listed as Homo sapiens) [compound 159] | ++++ (>75% = ++++)
68 | 222 (LLSEIEEHL; listed as Homo sapiens) [compound 222] | ++++ (>75% = ++++)
69 | 22 (KLLELQELVL; listed as Homo sapiens) [compound 22] | ++++ (>75% = ++++)
70 | 68 (FLAEAARSL; listed as Homo sapiens) [compound 68] | ++++ (>75% = ++++)
71 | 216 (TLLHFLAEL; listed as Homo sapiens) [compound 216] | ++++ (>75% = ++++)
72 | 46 (VMSSTLYTV; listed as Homo sapiens) [compound 46] | ++++ (>75% = ++++)

From US10640547B2, “Immunotherapy against melanoma and other cancers” (IMMATICS BIOTECHNOLOGIES GMBH, priority 2016, dated 2020)
